{
  "source": "patent US20230272023A1",
  "about": "(HUMAN CELL, published 2023)",
  "key": {"[1]": {"target": "T1, human TrkA on TF1 erythroleukemic cells (human, UniProt P04629 33-796)", "T1 sequence (P04629 33-796)": "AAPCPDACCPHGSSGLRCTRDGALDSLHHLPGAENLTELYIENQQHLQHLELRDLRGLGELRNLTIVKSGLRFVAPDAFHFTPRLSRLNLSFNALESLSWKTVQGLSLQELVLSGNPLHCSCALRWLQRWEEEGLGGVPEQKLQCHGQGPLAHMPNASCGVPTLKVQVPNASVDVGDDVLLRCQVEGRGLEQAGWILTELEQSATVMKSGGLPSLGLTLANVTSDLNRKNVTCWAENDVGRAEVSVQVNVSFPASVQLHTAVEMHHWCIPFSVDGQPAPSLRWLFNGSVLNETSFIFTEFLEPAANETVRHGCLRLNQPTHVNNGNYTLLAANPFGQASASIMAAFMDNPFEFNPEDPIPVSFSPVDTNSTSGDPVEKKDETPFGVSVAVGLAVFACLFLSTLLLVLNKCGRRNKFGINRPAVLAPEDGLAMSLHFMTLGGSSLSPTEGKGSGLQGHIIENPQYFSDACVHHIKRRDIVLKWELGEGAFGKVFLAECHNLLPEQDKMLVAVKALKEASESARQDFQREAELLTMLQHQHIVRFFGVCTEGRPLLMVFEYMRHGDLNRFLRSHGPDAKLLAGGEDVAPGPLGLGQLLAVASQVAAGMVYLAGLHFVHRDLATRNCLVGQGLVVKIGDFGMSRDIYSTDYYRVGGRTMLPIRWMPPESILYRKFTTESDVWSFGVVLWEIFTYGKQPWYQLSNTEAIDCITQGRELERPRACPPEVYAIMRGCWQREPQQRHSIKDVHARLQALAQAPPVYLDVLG", "assay": "cell-based or functional assay"}, "[2]": {"target": "T1, human TrkA on TF1 erythroleukemic cells", "assay": "cell-based or functional assay", "remark": "listed apart in the source"}, "[3]": {"target": "T2, TrkA receptor immobilized on the Biacore chip (UniProt P04629 33-423, limits assumed)", "T2 sequence (P04629 33-423 limits assumed)": "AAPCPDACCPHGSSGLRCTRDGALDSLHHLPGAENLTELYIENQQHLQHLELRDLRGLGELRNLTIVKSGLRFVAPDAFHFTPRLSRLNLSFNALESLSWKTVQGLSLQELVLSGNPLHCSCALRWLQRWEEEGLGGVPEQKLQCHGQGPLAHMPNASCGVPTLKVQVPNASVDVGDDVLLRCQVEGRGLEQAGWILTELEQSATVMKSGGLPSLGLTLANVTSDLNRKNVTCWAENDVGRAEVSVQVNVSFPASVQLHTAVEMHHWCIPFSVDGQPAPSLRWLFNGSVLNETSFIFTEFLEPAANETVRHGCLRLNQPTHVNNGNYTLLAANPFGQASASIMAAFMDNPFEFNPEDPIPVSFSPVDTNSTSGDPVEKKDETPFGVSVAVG", "assay": "SPR, Biacore 3000; ratio of the affinity for TrkA over that for p75^NTR", "method": "(§1) The binding experiments were performed on Biacore 3000 at 25° C. Receptors were directly immobilized by direct immobilization using EDC/NHS amine coupling kit and GE protocol. The receptor was coated until the desired RU. The unoccupied active sites on the chip were quenching by flowing 1 M ethanol amine. […] Data were analyzed using Biacore 3000 bia evaluation software (Biacore) using the values after reference subtraction. KD was determined by applying either local (for scouting) or global (full kinetics) 1:1 Langmuir fitting model. Full kinetics was performed with the range of analyte at a 2-fold serial dilution and flowed over the ligand from lowest to highest concentration range."}, "[4]": {"target": "T2, TrkA receptor immobilized on the …", "assay": "SPR, Biacore 3000; against NGF wt", "method": "as §1"}, "[5]": {"target": "T3, p75^NTR receptor immobilized on the Biacore chip (UniProt P08138 29-250)", "T3 sequence (looked up)": "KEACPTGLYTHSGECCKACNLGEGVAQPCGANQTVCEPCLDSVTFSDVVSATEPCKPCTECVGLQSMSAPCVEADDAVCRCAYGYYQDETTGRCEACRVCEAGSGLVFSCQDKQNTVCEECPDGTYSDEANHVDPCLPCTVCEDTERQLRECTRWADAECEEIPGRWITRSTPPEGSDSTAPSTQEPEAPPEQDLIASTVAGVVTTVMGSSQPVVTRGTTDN", "assay": "SPR, Biacore 3000; against NGF wt", "method": "as §1"}, "[6]": {"target": "T1, human TrkA on TF1 erythroleukemic cells", "assay": "cell-based or functional assay", "remark": "listed apart in the source"}, "[7]": {"target": "T3, p75^NTR receptor immobilized on the …", "assay": "SPR, Biacore 3000, 25 C, receptor amine-coupled on chip, NGF mutein as analyte", "method": "as §1"}, "[8]": {"target": "T2, TrkA receptor immobilized on the …", "assay": "SPR, Biacore 3000; Table 4 column Binding affinity (nM), TrkA receptor", "method": "as §1"}, "[9]": {"target": "T3, p75^NTR receptor immobilized on the …", "assay": "SPR, Biacore 3000; Table 4 column Binding affinity (nM), P75^NTR", "method": "as §1"}, "[10]": {"target": "T2, TrkA receptor immobilized on the …", "assay": "SPR, Biacore 3000, 25 C, receptor amine-coupled on chip, NGF mutein as analyte, 1:1 Langmuir", "method": "as §1"}},
  "data": [
    {"binder": "NGF K34A/R69A (ligand) SSSHPIFHRGEFSVCDSVSVWVGDKTTATDIKGAEVMVLGEVNINNSVFKQYFFETKCRDPNPVDSGCAGIDSKHWNSYCTTTHTFVKALTMDGKQAAWRFIRIDTACVCVLSRKAVRRA", "values": [
      {"measurement": "EC50 in TF-1 proliferation assay, protein kept 7 days at 4° C.", "setting": "[1]", "value": 9.13, "unit": "ng/mL"}
    ]},
    {"binder": "NGF K34D/R69A (ligand) SSSHPIFHRGEFSVCDSVSVWVGDKTTATDIKGDEVMVLGEVNINNSVFKQYFFETKCRDPNPVDSGCAGIDSKHWNSYCTTTHTFVKALTMDGKQAAWRFIRIDTACVCVLSRKAVRRA", "values": [
      {"measurement": "EC50 in TF-1 proliferation assay, protein kept 7 days at 4° C.", "setting": "[1]", "value": 12.3, "unit": "ng/mL"}
    ]},
    {"binder": "NGF K34D/R100E (ligand) SSSHPIFHRGEFSVCDSVSVWVGDKTTATDIKGDEVMVLGEVNINNSVFKQYFFETKCRDPNPVDSGCRGIDSKHWNSYCTTTHTFVKALTMDGKQAAWEFIRIDTACVCVLSRKAVRRA", "values": [
      {"measurement": "EC50 in TF-1 proliferation assay, protein kept 7 days at 4° C.", "setting": "[1]", "value": 58.8, "unit": "ng/mL"}
    ]},
    {"binder": "NGF K34A/R69A/R100E (ligand) SSSHPIFHRGEFSVCDSVSVWVGDKTTATDIKGAEVMVLGEVNINNSVFKQYFFETKCRDPNPVDSGCAGIDSKHWNSYCTTTHTFVKALTMDGKQAAWEFIRIDTACVCVLSRKAVRRA", "values": [
      {"measurement": "EC50 in TF-1 proliferation assay, protein kept 7 days at 4° C.", "setting": "[1]", "value": 689, "unit": "ng/mL"}
    ]},
    {"binder": "NGF K34D/R69A/R100D (ligand) SSSHPIFHRGEFSVCDSVSVWVGDKTTATDIKGDEVMVLGEVNINNSVFKQYFFETKCRDPNPVDSGCAGIDSKHWNSYCTTTHTFVKALTMDGKQAAWDFIRIDTACVCVLSRKAVRRA", "values": [
      {"measurement": "EC50 in TF-1 proliferation assay, protein kept 7 days at 4° C.", "setting": "[1]", "value": 23, "unit": "ng/mL"}
    ]},
    {"binder": "NGF K34D/K32A (ligand) SSSHPIFHRGEFSVCDSVSVWVGDKTTATDIAGDEVMVLGEVNINNSVFKQYFFETKCRDPNPVDSGCRGIDSKHWNSYCTTTHTFVKALTMDGKQAAWRFIRIDTACVCVLSRKAVRRA", "values": [
      {"measurement": "EC50 in TF-1 proliferation assay, 4° C.", "setting": "[2]", "value": 1.91, "unit": "ng/mL"},
      {"measurement": "EC50 in TF-1 proliferation assay, after storage at 55° C.", "setting": "[2]", "value": 9.7, "unit": "ng/mL"}
    ]},
    {"binder": "NGF K34D/K32D (ligand, Double mutein of mature human NGF; expressed in HEK293 cells; also called NGF34D/K32D; NGF34D/32 D) SSSHPIFHRGEFSVCDSVSVWVGDKTTATDIDGDEVMVLGEVNINNSVFKQYFFETKCRDPNPVDSGCRGIDSKHWNSYCTTTHTFVKALTMDGKQAAWRFIRIDTACVCVLSRKAVRRA", "values": [
      {"measurement": "EC50 in TF-1 proliferation assay, 4° C.", "setting": "[2]", "value": 2.62, "unit": "ng/mL"},
      {"measurement": "EC50 in TF-1 proliferation assay, after storage at 55° C.", "setting": "[2]", "value": 1.15, "unit": "ng/mL"},
      {"measurement": "Binding selectivity (TrkA/p75^NTR)", "setting": "[3]", "value": "> 328", "unit": "fold"},
      {"measurement": "binding affinity, % of wildtype", "setting": "[4]", "value": "5.9 % of wildtype"},
      {"measurement": "fold reduction of binding affinity against wildtype", "setting": "[4]", "value": 18, "unit": "fold"},
      {"measurement": "fold reduction of binding affinity against wildtype", "setting": "[5]", "value": 625, "unit": "fold"},
      {"measurement": "TrkA receptor Bio-activity", "setting": "[6]", "value": 2.62, "unit": "ng/mL"},
      {"measurement": "Kd", "setting": "[7]", "value": "> 200000", "unit": "pM"},
      {"measurement": "Kd", "setting": "[8]", "value": 610, "unit": "pM"},
      {"measurement": "Kd", "setting": "[9]", "value": "> 200000", "unit": "pM"},
      {"measurement": "Kd", "setting": "[10]", "value": 607, "unit": "pM"},
      {"measurement": "koff", "setting": "[10]", "value": 0.00398, "unit": "s⁻¹"},
      {"measurement": "kon", "setting": "[10]", "value": "6.54e+06", "unit": "M⁻¹ s⁻¹"}
    ]}
  ]
}
